Data published in article PMC3972135, “Identification and Characterization of MT-1X as a Novel FHL3-Binding Partner” (PLoS ONE, 2014).

Target: T1, GST-FHL3 (human, UniProt Q13643 1-280)
T1 construct: Four and a half LIM domain protein 3 (FHL3), human, full length cDNA amplified from pBV220/FHL3, in pGEX-4T-1; also called GST–FHL3 fusion protein; source: E. coli DH5α, purified (GSTrap FF column)
T1 sequence (looked up): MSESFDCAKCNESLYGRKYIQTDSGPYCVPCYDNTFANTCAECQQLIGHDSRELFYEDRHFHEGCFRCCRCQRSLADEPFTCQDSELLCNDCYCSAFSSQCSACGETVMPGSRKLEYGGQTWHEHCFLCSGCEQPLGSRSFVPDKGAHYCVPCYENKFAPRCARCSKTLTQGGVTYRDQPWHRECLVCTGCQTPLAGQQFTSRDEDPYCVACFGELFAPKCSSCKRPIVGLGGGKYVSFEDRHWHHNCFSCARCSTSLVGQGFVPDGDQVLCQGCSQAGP
Assay: pull-down; purified GST-FHL3 or GST on Glutathione Agarose, His-MT-1X from in vitro translation added, 4°C overnight; Western blot with anti-His
Details: both partners purified

B1: His-MT-1X (natural protein)
chain: not shown
notes: MT-1X (metallothionein-1X), human; cDNA amplified by PCR from pACT2/MT-1X (the full length clone); also called pT7/MT-1X; source: in vitro translated (pT7CFE1-CHis)
B1: binds.
